Source: patent US20230330254A1 (Regeneron, published 2023)
Where two headings read alike, the source gives them in different places.

T1: full-length human glucagon-like peptide 2 receptor on HEK293/CRE-Luc/hGLP2R cells (human, UniProt O95838 1-553)
T1 sequence (looked up): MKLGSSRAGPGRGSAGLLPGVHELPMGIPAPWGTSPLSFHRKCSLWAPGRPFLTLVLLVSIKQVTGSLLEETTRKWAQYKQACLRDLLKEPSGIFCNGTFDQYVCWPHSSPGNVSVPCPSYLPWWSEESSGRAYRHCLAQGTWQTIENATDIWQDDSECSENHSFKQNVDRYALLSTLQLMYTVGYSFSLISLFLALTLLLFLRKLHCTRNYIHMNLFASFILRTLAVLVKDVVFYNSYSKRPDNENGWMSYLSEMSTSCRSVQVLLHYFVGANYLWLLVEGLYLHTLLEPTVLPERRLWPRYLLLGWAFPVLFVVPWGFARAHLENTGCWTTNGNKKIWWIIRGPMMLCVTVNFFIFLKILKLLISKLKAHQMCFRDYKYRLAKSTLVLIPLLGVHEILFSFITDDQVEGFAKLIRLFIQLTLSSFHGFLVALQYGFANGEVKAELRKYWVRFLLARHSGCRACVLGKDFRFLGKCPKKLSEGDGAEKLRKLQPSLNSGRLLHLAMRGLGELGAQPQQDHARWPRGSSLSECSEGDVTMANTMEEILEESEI

T2: full-length human gastric inhibitory polypeptide receptor on HEK293/CRE-Luc/hGIPR cells (human, UniProt P48546 22-466)
T2 sequence (looked up): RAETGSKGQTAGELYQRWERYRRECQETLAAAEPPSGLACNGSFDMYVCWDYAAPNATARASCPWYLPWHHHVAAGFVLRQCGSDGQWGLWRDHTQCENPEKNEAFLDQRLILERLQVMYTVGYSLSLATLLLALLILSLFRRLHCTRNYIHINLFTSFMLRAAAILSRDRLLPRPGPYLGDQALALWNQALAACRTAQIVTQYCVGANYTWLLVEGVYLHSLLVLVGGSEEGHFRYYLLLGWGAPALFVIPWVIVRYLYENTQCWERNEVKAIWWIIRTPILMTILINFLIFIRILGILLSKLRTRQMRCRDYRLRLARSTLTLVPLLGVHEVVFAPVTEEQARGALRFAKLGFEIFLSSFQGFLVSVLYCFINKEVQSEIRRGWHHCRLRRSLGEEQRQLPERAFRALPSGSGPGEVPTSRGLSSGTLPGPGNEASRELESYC

T3: full-length mouse GLP1R on HEK293/CRE-Luc/mGLP1R cells (mouse, UniProt O35659 22-463)
T3 construct: whole, on cells
T3 sequence (looked up): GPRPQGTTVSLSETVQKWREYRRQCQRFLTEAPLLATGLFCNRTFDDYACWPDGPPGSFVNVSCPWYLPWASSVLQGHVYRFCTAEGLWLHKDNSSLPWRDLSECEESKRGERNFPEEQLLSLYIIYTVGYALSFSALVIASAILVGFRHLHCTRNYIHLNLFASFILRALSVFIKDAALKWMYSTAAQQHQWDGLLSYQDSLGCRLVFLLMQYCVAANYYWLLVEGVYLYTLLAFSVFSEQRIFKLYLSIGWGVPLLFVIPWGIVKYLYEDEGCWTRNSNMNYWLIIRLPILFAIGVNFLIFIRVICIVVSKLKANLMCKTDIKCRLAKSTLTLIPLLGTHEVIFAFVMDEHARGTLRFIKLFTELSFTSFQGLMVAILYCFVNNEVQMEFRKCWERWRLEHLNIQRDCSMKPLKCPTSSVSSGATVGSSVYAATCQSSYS


Assays:
[1] = molecular target: T4, full-length human GLP1R on HEK293/CRE-Luc/hGLP1R cells (human, UniProt P43220 24-463); assay: cell-based or functional assay
[2] = molecular target: T4, full-length human GLP1R on …; assay: cell-based or functional assay; remark: listed apart in the source
[3] = molecular target: T4, full-length human GLP1R on …; assay: cell-based or functional assay; remark: listed apart in the source
[4] = molecular target: T4, full-length human GLP1R on …; assay: cell-based or functional assay; remark: listed apart in the source
[5] = molecular target: human GLP1R on PathHunter eXpress GLP1R CHO-K1 b-Arrestin GPCR cells (human, UniProt P43220 24-463); assay: cell-based or functional assay
[6] = molecular target: Myc-tagged full length human GLP1R on HEK293/Myc-hGLP1R/Cre-Luc cells (human, UniProt P43220 24-463); assay: cell-based or functional assay
[7] = molecular target: T4, full-length human GLP1R on …; assay: cell-based or functional assay; remark: listed apart in the source
[8] = molecular target: T5, full-length human glucagon receptor on HEK293/CRE-Luc/hGCGR cells (human, UniProt P47871 26-477); assay: cell-based or functional assay
T5 sequence (P47871 26-477): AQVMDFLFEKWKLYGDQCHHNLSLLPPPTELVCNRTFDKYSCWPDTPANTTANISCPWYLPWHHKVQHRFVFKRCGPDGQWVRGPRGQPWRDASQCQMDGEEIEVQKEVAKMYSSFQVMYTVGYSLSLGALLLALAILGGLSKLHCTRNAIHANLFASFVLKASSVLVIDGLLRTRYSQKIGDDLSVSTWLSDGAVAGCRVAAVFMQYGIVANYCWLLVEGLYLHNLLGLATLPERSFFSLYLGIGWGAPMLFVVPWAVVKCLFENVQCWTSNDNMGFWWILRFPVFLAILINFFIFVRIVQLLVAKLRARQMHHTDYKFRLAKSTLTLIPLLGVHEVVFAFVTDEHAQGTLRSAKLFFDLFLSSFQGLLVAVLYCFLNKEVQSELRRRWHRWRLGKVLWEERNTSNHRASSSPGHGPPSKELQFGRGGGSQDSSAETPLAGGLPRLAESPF

[9] = molecular target: T1, full-length human glucagon-like peptide …; assay: cell-based or functional assay
[10] = molecular target: T2, full-length human gastric inhibitory …; assay: cell-based or functional assay
[11] = molecular target: T6, full-length cynomolgus GLP1R on HEK293/CRE-Luc/mfGLP1R cells (cynomolgus, UniProt F8V479 24-463); assay: cell-based or functional assay
[12] = molecular target: T4, full-length human GLP1R on …; assay: cell-based or functional assay; remark: listed apart in the source
[13] = molecular target: T5, full-length human glucagon receptor on …; assay: cell-based or functional assay; remark: listed apart in the source
[14] = molecular target: T1, full-length human glucagon-like peptide …; assay: cell-based or functional assay; remark: listed apart in the source
[15] = molecular target: T2, full-length human gastric inhibitory …; assay: cell-based or functional assay; remark: listed apart in the source
[16] = molecular target: T6, full-length cynomolgus GLP1R on …; assay: cell-based or functional assay; remark: listed apart in the source
[17] = molecular target: T4, full-length human GLP1R on …; assay: flow cytometry, hGLP1R cells
[18] = molecular target: T3, full-length mouse GLP1R on …; assay: flow cytometry, mGLP1R cells
[19] = molecular target: T6, full-length cynomolgus GLP1R on …; assay: flow cytometry, mfGLP1R cells
[20] = molecular target: T6, full-length cynomolgus GLP1R on …; assay: flow cytometry, mfGLP1R cells; remark: listed apart in the source
[21] = molecular target: T4, full-length human GLP1R on …; assay: flow cytometry, hGLP1R cells; remark: listed apart in the source
[22] = molecular target: T7, N-terminal ectodomain of human GLP1R expressed with a myc-myc hexahistidine tag (human, UniProt P43220 24-145, limits assumed); assay: SPR, captured via anti-hFc, 25 C
T7 construct: extracellular domain; also called hGLP1R-MMH; hGLP1R.mmh
T7 sequence (P43220 24-145 limits assumed): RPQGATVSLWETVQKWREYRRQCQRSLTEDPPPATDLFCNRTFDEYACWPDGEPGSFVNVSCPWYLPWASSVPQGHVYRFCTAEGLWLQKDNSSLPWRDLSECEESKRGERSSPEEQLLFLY

Binder | CRE-luc EC50 [2] [nM] | CRE-luc Relative Potency (% M2361 EC50) [2] [%] | CRE-luc Relative Signal:Noise (% M2361) [2] [%] | CRE-luc S/N [2] [fold] | CRE-luc EC50 [4] [nM] | CRE-luc Emax (% GLP-1) [4] [%] | b-arrestin 2 recruitment EC50 [5] [nM] | b-arrestin 2 recruitment Emax (% GLP-1) [5] [%] | CRE-luc EC50 [7] [nM] | CRE-luc EC50 [8] [nM] | CRE-luc EC50 [9] [nM] | CRE-luc EC50 [10] [nM] | CRE-luc EC50 [11] [nM] | CRE-luc EC50 [12] [nM] | CRE-luc EC50 [13] [nM] | CRE-luc EC50 [14] [nM] | CRE-luc EC50 [15] [nM] | CRE-luc EC50 [16] [nM] | EC50 [17] [nM] | Flow S/N [17] [fold] | also measured
XXGTXTSDXX (CapAib-E*-G-T-F*-T-S-D-AA2-AA1: CapAib = 3-((2-(1H-imidazol-5-yl)ethyl)amino)-2,2-dimethyl-3-oxopropanoic acid; E* = (S)-2-amino-3-(2H-tetrazol-5-yl)propanoic acid; F* = (S)-2-amino-3-(2-fluorophenyl)-2-methylpropanoic acid; AA2 = biphenylalanine derivative carrying the amino-PEG8-triazole linker; AA1 = (S)-2-amino-5-(3,5-dimethylphenyl)pentanamide) [GLP1R agonist linker-payload LP11 (NH2-PEG8-triazole-P8)] | 0.0369 | 44 | 96.4 | 62 | 0.0168 | 93.9 | 2.48 | 108 | 0.0601 | > 30 | > 30 | > 30 | 0.202 | 0.0258 | > 200 | > 200 | > 200 | 0.0463 | – | – | cAMP EC50 [1]: 0.318 nM; CRE-luc EC50 (experiment A) [3]: 0.0161 nM; CRE-luc Relative Potency (% P8 EC50) (experiment A) [3]: 33.1%; CRE-luc S/N (experiment A) [3]: 74.5 fold; CRE-luc EC50 [6]: 0.016 nM
REGN15869 (antibody, human IgG4 S228P, kappa, V domains shown, IgG4; Q-tag on light chain N-terminus; also called REGN15869 unconjugated Ab) VH: not shown VL: DIQMTQSPSSVSASVGDRVTITCRASQGINSWLAWYQQKPGKAPKLLIYAASSLESGVPSRFSGSGSGTDFTLTISSLQPEDFATYYCHQADSFPYTFGQGTKLEIKR | – | – | – | – | > 1000 | 0.5 | > 1000 | 4.3 | > 30 | > 30 | > 30 | > 30 | > 30 | – | – | – | – | – | 9.56 | 106 | EC50 [18]: 43.1 nM; Flow S/N [18]: 53.3 fold; EC50 [19]: 8.96 nM; Flow S/N [19]: 132 fold
REGN7990-M3190 (antibody, human IgG4 S228P, kappa, V domains shown, linker-payload M3190 (LP11) on Gln 3 of the N-terminal Q-tag LLQGSG, antibody-tethered drug conjugate; also called REGN7990 ATDC; anti-GLP1R mAb3-LP11) VH: not shown VL: DIQMTQSPSSVSASVGDRVTITCRASQGINSWLAWYQQKPGKAPKLLIYAASSLQSGVPSRFSGSGSGTDFTLTISSLQPEDFATYYCHQADSFPYTFGQGTKLEIKR | 0.0601 | 27 | 135 | 86.9 | 0.236 | 90.9 | 17.2 | 103 | 0.0637 | > 30 | > 30 | > 30 | 0.257 | 0.0724 | > 200 | > 200 | > 200 | 0.0772 | 30.5 | 231 | EC50 [18]: 91.5 nM; Flow S/N [18]: 29.3 fold; EC50 [20]: 4.79 nM; Flow S/N [20]: 103 fold; EC50 [21]: 9.81 nM; Flow S/N [21]: 117 fold; EC50 [19]: 29.9 nM; Flow S/N [19]: 486 fold; 90 nM hGLP1R.mmh Bound (RU) [22]: 22.8 RU; Kd [22]: 2.01 nM; koff [22]: 0.000785 s⁻¹; kon [22]: 390000 M⁻¹ s⁻¹; t1/2 [22]: 14.7 min
